Assays:
Assay in all cases: IEDB peptide-MHC binding, purified MHC/competitive/radioactivity; filed as Kd, often an IC50 or EC50 that approximates it; ≥ and ≤ were set here for values at or beyond the usual limits of such assays
Details in all cases: source organism: Plasmodium falciparum 3D7
HLA-A*02:01 = molecular target: HLA-A*02:01
HLA-A*02:02 = molecular target: HLA-A*02:02
HLA-A*02:03 = molecular target: HLA-A*02:03
HLA-A*02:06 = molecular target: HLA-A*02:06
HLA-A*68:02 = molecular target: HLA-A*68:02

Sequence	Kd (HLA-A*02:01)	Kd (HLA-A*02:02)	Kd (HLA-A*02:03)	Kd (HLA-A*02:06)	Kd (HLA-A*68:02)
NILIVLYYL	≥ 10000 nM	1610 nM	8780 nM	1090 nM	≥ 10000 nM
FLVFLVFSNV	269 nM	212 nM	–	232 nM	5390 nM
ATYGIIVPV	3.2 nM	2 nM	2.8 nM	5 nM	21 nM
VICSFLVFLV	–	415 nM	2920 nM	197 nM	1950 nM
LLNESNIFL	43 nM	2.5 nM	24 nM	143 nM	4480 nM
NQMIFVSSI	250 nM	21 nM	3.6 nM	14 nM	198 nM
YQDPQNYEL	79 nM	18 nM	441 nM	52 nM	≥ 10000 nM
VLFLQMMNV	31 nM	1.8 nM	2.7 nM	9.5 nM	323 nM
RLFEESLGI	–	1.9 nM	5.5 nM	68 nM	418 nM
RLPVICSFLV	–	2.5 nM	33 nM	19 nM	9180 nM
FMNRFYITT	–	18 nM	–	996 nM	6540 nM

— the Immune Epitope Database (IEDB)
